Source: the supplement of paper PMC10126150
± gives the standard deviation of the averaged measurements.

These sequences were tested on ATP (assay: switch fluorescence ratio, 500 uM ATP over buffer (Cy3 cluster intensity, sum of 5 cycles each) (fold (ratio)); higher = stronger signal-on switching upon ATP binding; sequences stand for … in TCGTCGGCAGCGTCAGATGTGTATAAGAGACAGTTTTTTTTTTTTTTTTTTTTTTTTT…TC). Settings: aptamer strand: ATP DNA aptamer (quencher-CACCTGGGGGAGTATTGCGGAGGAAGG + anchor), 100 nM annealed; ATP concentration: 500 uM.
Procedure, shortened: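 Values give the fluorescence ratio for each switch-domain sequence, averaged from per-cluster ratios of summed target-cycle to summed buffer-cycle Cy3 intensity. The Cy3-labelled switching-strand clusters sat on a modified Illumina MiSeq flow-cell, were annealed to 100 nM quencher-labelled ATP aptamer, and were imaged in selection buffer, then after 15 min with 500 uM ATP at 22 °C. Five cycles ran with NaOH stripping and re-annealing between them, and clusters outside 100-1000 RFU were excluded.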
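Note: ATP exposure 15 min at 22 °C before imaging.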

Sequence | switch fluorescence ratio
TATACGGGAT | 1.06 ± 0.043
GCGACTAGGT | 1.03 ± 0.028
ATAACCGTGG | 1.05 ± 0.074
CGGGGACGGC | 0.98 ± 0.025
CGTAACCTTG | 1.023 ± 0.0071
TAGAATGTT | 1.01 ± 0.015
AGTGGTGTGG | 0.993 ± 0.044
GTCTGGGCTG | 0.986 ± 0.014
ATTAGTCTGC | 0.996 ± 0.033
AAAGTTGGCT | 1.02 ± 0.046
AACGGGGTCT | 0.978 ± 0.011
TGATTGTGCG | 0.957 ± 0.021
CAGTGGCTTC | 1.01 ± 0.023
CATAGGGAGA | 1.006 ± 0.0042
TTTGATATCC | 1 ± 0.017
TTGTGTGTCA | 0.994 ± 0.022
TCTGTTGCAG | 0.999 ± 0.024
CGTAGATTTT | 1 ± 0.046
GGCTTCTTGT | 1.01 ± 0.009
GAGGAAAAGT | 0.997 ± 0.051
GTAGATTGG | 0.9872 ± 0.0035
TCGTTGCAGT | 1.02 ± 0.018
TAGATTCTGT | 0.9951 ± 0.0032
TAAGTTGGGA | 0.98 ± 0.031
GGGGGATTGA | 1.0228 ± 0.00054

Sequence | switch fluorescence ratio
TATGCGAGAC | 2.3 ± 0.15
GGACTTATTT | 0.986 ± 0.014
GTGTGTGGGC | 1.04 ± 0.061
TCAAAACTGT | 1.07 ± 0.067
ATTGATATTT | 0.998 ± 0.019
GTTTCAAGAT | 0.994 ± 0.044
CATTGTAAGA | 0.962 ± 0.043
TAAAACGCCC | 1.15 ± 0.04
GAATAAAGTT | 0.986 ± 0.046
TTAAGAAG | 0.996 ± 0.015
TTCGTGGGGG | 0.991 ± 0.015
GGAAACAGGA | 1.02 ± 0.05
GGGTGGGTA | 1.03 ± 0.03
GTTAGTCAAA | 0.991 ± 0.01
ATAGGAAGGA | 1.04 ± 0.056
TTTAGATTGA | 0.99606 ± 0.00096
CGTGGTGGG | 0.968 ± 0.029
TAAGTGGTTT | 1 ± 0.019
GGGGGGGTGG | 1 ± 0.033
TCCGTCCCCG | 1.35 ± 0.058
GTTATTTATT | 0.995 ± 0.047
ATGGAGTGTG | 0.989 ± 0.02
ACCCAATTTT | 1.03 ± 0.036
GAAGGCAGGG | 0.986 ± 0.029
TGTACGTAGG | 1.24 ± 0.21

Sequence | switch fluorescence ratio
TGAACTTGAC | 1.14 ± 0.052
AAAATCAAAT | 1.02 ± 0.019
TTTTAGGCTC | 1.03 ± 0.039
GATTTAGCTA | 1.014 ± 0.0034
CGGGTGGTTC | 0.994 ± 0.012
TTGGTGCAGC | 1.025 ± 0.0075
TACCTAGAAC | 1.07 ± 0.056
ACGAGGTAGA | 1.02 ± 0.021
TTTAATACGT | 1.023 ± 0.0034
ATAAGTAAAG | 1.01 ± 0.021
GGGGGGGACG | 0.962 ± 0.055
CGAGGTTAGG | 1.06 ± 0.062
GTCACCAACA | 1.27 ± 0.28
AATTCATAGT | 0.978 ± 0.018
TGATGATTTC | 1.009 ± 0.009
GGTCTACCGG | 1.01 ± 0.017
TTGGGCTCAG | 0.982 ± 0.013
GCAATTTGGT | 1.03 ± 0.02
ATTTGTTAGA | 1.03 ± 0.021
CGCTTAATCT | 1.07 ± 0.018
CTGGGTTCCT | 1.02 ± 0.024
GATACCCATA | 0.996 ± 0.016
CCGGAGGAGA | 1.06 ± 0.017
TAAAATGTTT | 0.998 ± 0.013
TATAACATGT | 0.997 ± 0.026

Sequence | switch fluorescence ratio
AGGGGGGACT | 0.993 ± 0.011
TTAAGGGCCA | 0.9709 ± 0.0035
TGAGGTGCGG | 0.996 ± 0.024
GTTGAAGAAA | 0.998 ± 0.072
ACACCACGTT | 1.56 ± 0.057
GCGGGATGCA | 0.993 ± 0.033
CCATGGAGGT | 1.01 ± 0.034
CGGTACGACG | 0.94 ± 0.019
TTTTCTCACG | 1.12 ± 0.11
GAGCATAGTT | 1.03 ± 0.014
GGTGGACTTA | 1.01 ± 0.03
GGGGGTAGCA | 1.05 ± 0.077
TAAACGGGAT | 0.999 ± 0.019
TGCGGATATA | 1.04 ± 0.043
GATTGTACTA | 0.998 ± 0.019
TAGACTTGTT | 0.996 ± 0.02
GCGTGGTCTG | 0.971 ± 0.04
TTTACGTTTT | 1.03 ± 0.041
GATAATAATT | 0.9969 ± 0.0091
TCTGGATTCA | 0.986 ± 0.027
TTTCGATAGG | 0.979 ± 0.034
CCACCTGGCG | 1.29 ± 0.017
CGTGCCCGTG | 1 ± 0.017
GTTCATAAAG | 0.98 ± 0.028
CAAACAGTTT | 0.994 ± 0.029

Sequence | switch fluorescence ratio
CAGCTTTAAT | 1.03 ± 0.02
AAAGGGGGC | 0.974 ± 0.067
GATATTGGTG | 1.024 ± 0.003
ATTTATTTCT | 1.03 ± 0.064
GCGTGGGATA | 1.03 ± 0.038
GGGAGTCCCA | 0.9973 ± 0.0078
GGGGAATGTG | 0.963 ± 0.013
AAGGCTTGGG | 0.992 ± 0.048
CCTTTGCTGT | 1.073 ± 0.0024
TGCAGGGCAA | 1.02 ± 0.044
GGGCCCGCTG | 0.987 ± 0.049
ATTTACAGAT | 1.04 ± 0.03
GCTGTGTGGC | 1.01 ± 0.047
ACGCTTTATT | 1.08 ± 0.032
TGATAACCGC | 1.1 ± 0.039
GTGTGTTGTC | 1.01 ± 0.02
TAAATTTGAC | 0.996 ± 0.036
TAATAGATCC | 1.01 ± 0.067
GAGGGACAAT | 0.9882 ± 0.0066
TGCTTGGGTC | 1.01 ± 0.028
TGGTCTTTTA | 0.9852 ± 0.0022
CGATTTGACT | 1.02 ± 0.037
GTAGTAGGTG | 1 ± 0.033
ATCCGAAGAT | 1.04 ± 0.016
TAATTTGTGC | 1.01 ± 0.044

Sequence | switch fluorescence ratio
AGGTCGAATT | 1 ± 0.051
AGTCTGGTGC | 1.04 ± 0.032
AACTAGAGGG | 0.98 ± 0.017
AATTGATCGT | 0.982 ± 0.024
TCGTTTATAT | 1.01 ± 0.04
GGGTGGGCTC | 0.971 ± 0.026
TATTCAACGG | 1.02 ± 0.028
AGATTTCGGC | 1.039 ± 0.0015
GGGGGGCGTG | 0.993 ± 0.027
AATTTGGTGC | 1.011 ± 0.0064
ATTGGGTATT | 0.9749 ± 0.007
ATAAGACCCG | 0.98609 ± 0.00056
CGAAGTTATG | 1.06 ± 0.03
TGGGATTGAC | 1.06 ± 0.019
TTGGTGTCTT | 0.959 ± 0.011
GGTAGTAAGA | 1.01 ± 0.047
AAATAGTGGG | 0.986 ± 0.026
TGCTAGGGAA | 0.975 ± 0.015
ATGTGGTACT | 0.979 ± 0.027
GGGATGGGTC | 0.985 ± 0.02
CGGGCATGCT | 1.04 ± 0.034
ATACGGTTTT | 0.996 ± 0.026
TCGGGTTGGG | 0.975 ± 0.023
TAAGTGGTA | 0.993 ± 0.042
TTTCGGCATT | 2.4 ± 1.9

Sequence | switch fluorescence ratio
CAGGGGTTTT | 1.32 ± 0.54
CATTTGTGTT | 1.02 ± 0.046
AGATGAATGC | 0.989 ± 0.011
GACTAAGACT | 1.01 ± 0.026
GTGGGCTGTT | 1.01 ± 0.06
AAGGCGTTTT | 1.01 ± 0.018
CGGGCGCGTG | 0.978 ± 0.053
GGACCGGTGA | 1.01 ± 0.042
TCGTTGATTT | 1.016 ± 0.01
CCACAGTGTT | 1.61 ± 0.1
TGGGTGGGTG | 1.04 ± 0.053
AATTTACACT | 1.06 ± 0.014
TCAACGTGCT | 1 ± 0.037
GGGTTTTCTG | 0.945 ± 0.017
GAGAGGACAT | 0.996 ± 0.011
AGCCTGGTGG | 1.05 ± 0.013
ATTTTTGGCG | 0.9867 ± 0.0088
ATAGACAGGC | 1.04 ± 0.021
CTTACGTGTG | 1.03 ± 0.034
CCGTAGAGTT | 1.29 ± 0.031
TGCTAGGGTT | 1 ± 0.032
CAGTCTAAGT | 1.02 ± 0.014
TTGTTGAGAG | 1.02 ± 0.022
ATTAGAATTA | 0.982 ± 0.062
GGGGTGAGCT | 0.981 ± 0.03

Sequence | switch fluorescence ratio
TGCACACGTG | 0.9787 ± 0.0068
TTCTAGGGAA | 0.977 ± 0.023
TTTTCAAATA | 1.01 ± 0.061
TCGGTTTGTT | 1 ± 0.0029
TTTTGGGTAC | 0.995 ± 0.04
AAAGATGTCA | 1.005 ± 0.0029
GCAGATGCCT | 1 ± 0.023
TTTGTTTCAA | 0.982 ± 0.013
AGGGGGCTGT | 0.994 ± 0.03
ACATGATCTC | 0.993 ± 0.021
TGGGTCAGTC | 1.05 ± 0.021
TACAGAGTTT | 0.977 ± 0.015
ACAGGGGTTA | 1.25 ± 0.4
TGATTCTCGT | 1.02 ± 0.018
TAGGTACTGG | 1.04 ± 0.014
ATTTATTATG | 0.989 ± 0.038
CATAGTGATG | 0.986 ± 0.026
GGAATGAGTA | 0.997 ± 0.016
TGTATGGGGG | 0.946 ± 0.038
AGGACCAGTT | 1.03 ± 0.055
GTGGGGGGAA | 0.98 ± 0.018
CGGGGACTTC | 1.02 ± 0.019
TGTAGGGGTC | 1.01 ± 0.011
TGCGAGGGTG | 1.02 ± 0.065
CGCGCTGCTG | 1.03 ± 0.029
